Measured values as given in US20220017615A1 (SHANGHAI PHARMAEXPLORER, published 2022).

Key:
[1] = molecular target: T1, His-tagged CD47 recombinant protein, CD47-His (human, UniProt Q08722 19-141, limits assumed); assay: BLI (Octet Red 96), antibody on AHC sensor, CD47-His 100 nM
T1 construct: it is not restated for CD47-His; also called human CD47-His protein; antigen CD47-His; not shown: His tag

[2] = molecular target: T2, biotin-labeled CD47 extracellular domain protein (CD47-ECD) (UniProt Q08722 19-139, limits assumed, biotin-labeled (sites not given)); assay: blocking ELISA: SIRPα-hFc coated, biotin-labeled CD47-ECD added with the antibody, OD450; blocked ligand SIRPα-hFc
T2 construct: extracellular domain; also called CD47 protein

Kd [1]: 10.2 nM
koff [1]: 0.00358 s⁻¹
kon [1]: 350000 M⁻¹ s⁻¹
IC50 (read off the curve) [2]: ~1 nM
B1: c95E2D10 (antibody, V domains shown)
VH: QIQLQQSGPELVKPGASMKISCKASGYPFTDYYIHWVKQKPGQGLEWIGWIYPGSGNNKYNEKFKGKATLTVDTSPSTVYMQLSSLTSEDTAVYFCARRAGNYFDYWGQGTTLTVSS
VL: NIVMTQSPKSMSRSVGERVTLSCRASENVRTYVFWYQQKPGLSPKLLIYGASNRYIGVPDRFTGSGSATDFTLTISSVQAEDLADYHCGQSYSYPLTFGAGTKLELK
